Tested on: MS2 coat protein
Assay: apparent KD of MS2 coat protein; designed switch direction (-1 OFF switch, 1 ON switch): -1; higher = weaker reporter binding
How it was run: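 Designed RNA switches were transcribed on Illumina chips by stalled E. coli RNA polymerase and titrated with SNAP-549-labelled MS2 coat protein from 0.7 or 1.5 nM, doubling to 3 µM. Step length ran from 0.8–1.5 h at the lowest concentration to 10–20 min at the highest. The apparent KD is the median over clusters for each design, from curve-fitted normalised cluster fluorescence.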

[1] = input ligand: microRNA oligo, concentration not stated

GGAUUCCAGUGAGGAUAUCCAAAUAAAAGCCAUGGAGAAGGCACAUGAGGAUCACCCAUGUAGGGCAAUAGCAGCGACCACUGC [Raqube] (Eterna round: R96, puzzle: Exclusion NG 1)
apparent KD of MS2 coat protein (input ligand: FMN 200 uM): 59.4 nM | apparent KD of MS2 coat protein [1]: 27.6 nM | apparent KD of MS2 coat protein (input ligand: none): 29.3 nM

CGAUGUGGAGUGAGGAUAUCGUGUUCGAAAGAACGUGAGAAGGCACAUGAGGAUCACCCAUGUGAUUCACGUCG [Omei Ex4B A6] (Eterna round: R97, puzzle: Brourd's mod of Exclusion 4)
apparent KD of MS2 coat protein (input ligand: FMN 200 uM): 28 nM | apparent KD of MS2 coat protein (input ligand: none): 15.6 nM

ACAAGCGCGAAAGUCUUAUACAUGAGGAUCACCCAUGUUCUCAAGGUCUUAUGUACUGACACGAUUACUCGUCUUAU [AK-miRNA-r3-4] (Eterna round: R97, puzzle: Sensor, turn-off variant 1)
apparent KD of MS2 coat protein (input ligand: FMN 200 uM): 117 nM | apparent KD of MS2 coat protein (input ligand: none): 112 nM

GUGUAGUCAGGAUAUACAUAGGAAGAGAAGAGAAGAGAAGCACAUGAGGAUCACCCAUGUAGAAGGGACAGUGU [Excluse me!! 4 - Jieux - Exclusion 2] (Eterna round: R96, puzzle: Exclusion 2)
apparent KD of MS2 coat protein [1]: 40.1 nM

GUUGUGUGAGGAUAUGCCUGGCCGUGAGGCCGGAUUGGGUGGCAGAAGGUACAUGAGGAUCACCCAUGUACGGG [salish99_ex4_4_007] (Eterna round: R97, puzzle: Exclusion 4)
apparent KD of MS2 coat protein (input ligand: FMN 200 uM): 45.4 nM | apparent KD of MS2 coat protein (input ligand: none): 30.9 nM

UAUUUGCAAGCGAGAUCCCACAUGAGGAUCACCCAUGUUCUUGGAAAGUACAGAAUUACUGUACAAGCUCGUCUUAU [Winner reversed engineered 32] (Eterna round: R97, puzzle: Sensor, turn-off variant 1)
apparent KD of MS2 coat protein (input ligand: FMN 200 uM): 22.1 nM | apparent KD of MS2 coat protein (input ligand: none): 25.7 nM

CGAGCUAGUGUGAGGAUAUACCUAUGGAUACAUAGGUAGAAGGCACAUGAGGAUCACCCAUGUCCUAUAGCUCG [jl-bmx4-4.56] (Eterna round: R97, puzzle: Brourd's mod of Exclusion 4)
apparent KD of MS2 coat protein (input ligand: FMN 200 uM): 499 nM | apparent KD of MS2 coat protein (input ligand: none): 177 nM

ACGCCUCCUGUCAGGAUAUGCAUCGGGCUUCCGCAGCAGAAGGGACAUGAGGAUCACCCAUGUCAAAUAAAAUC [Onsoqule] (puzzle: Brourd's mod of Exclusion 4)
apparent KD of MS2 coat protein (Eterna round: R95, input ligand: microRNA oligo, concentration not stated): 16.3 nM

CUCCGGCCUGUAGGAUAUGGAUCCGAUUAGGAUCCAGAAGGACAUGAGGAUCACCCAUGUACAUGUAAACAGUCAUCACCGGAC [salish99_ExNG1_r04_203] (Eterna round: R96, puzzle: Exclusion NG 1)
apparent KD of MS2 coat protein (input ligand: FMN 200 uM): 23.8 nM | apparent KD of MS2 coat protein [1]: 15.2 nM | apparent KD of MS2 coat protein (input ligand: none): 16.7 nM

CCGCUCCGUGUAGGAUAUUGGCCUGCUCUGGGUCGAGAAGGACAUGAGGAUCACCCAUGUAUGUUAUUAUCACGCGUGGCGCAU [Design 80] (Eterna round: R96, puzzle: Exclusion NG 1)
apparent KD of MS2 coat protein (input ligand: FMN 200 uM): 41.8 nM | apparent KD of MS2 coat protein [1]: 18.9 nM | apparent KD of MS2 coat protein (input ligand: none): 29.3 nM

CUGUACUGAGGAUAUACAUGAGGAUCACCCAUGUUCUUCAGCUAGGAAACUAGCAAAGGUAGAAGGCAGUACAG [Mat - Exclusion 3 - Eli Mod - D69] (Eterna round: R97, puzzle: Exclusion 3)
apparent KD of MS2 coat protein (input ligand: FMN 200 uM): 784 nM | apparent KD of MS2 coat protein (input ligand: none): 34.3 nM

ACCUCUGAGGAGGAUAUACAGUGCGAAAGGACAGUAGAAGGCUUCACAUGAGGAUCACCCAUGUCGAAUAGUGA [EX6 #79] (Eterna round: R97, puzzle: Exclusion 6)
apparent KD of MS2 coat protein (input ligand: FMN 200 uM): 86.1 nM | apparent KD of MS2 coat protein (input ligand: none): 58.7 nM

GCGAGCAGACGGAGAUCCAACAUGAGGAUCACCCAUGUCUCGCAAGCUUUUUGCUUGUCUUAUCCUCCUCUGUUUAG [Design #8] (Eterna round: R97, puzzle: Sensor, turn-off variant 1)
apparent KD of MS2 coat protein (input ligand: FMN 200 uM): 81.3 nM | apparent KD of MS2 coat protein (input ligand: none): 80.4 nM

GUCAUGAUAGGAUAUUACGGACGGAACAUGAGGAUCACCCAUGUGUCCCAAUCCAACUGAUAAGAAGGAUCAUGGC [Eternabot (Original) Solution 34] (Eterna round: R97, puzzle: Exclusion 5)
apparent KD of MS2 coat protein (input ligand: FMN 200 uM): 18.8 nM | apparent KD of MS2 coat protein (input ligand: none): 14.5 nM
